± gives the standard deviation of the averaged measurements.
system: Saccharomyces cerevisiae; assay: protein stability index of tFT-peptide fusion (C-terminal peptide) (PSI (0-1 scale)); higher = more stable (slower turnover); conditions: genetic background: wild type; temperature: 30 C
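Also: PSI is a weighted mean of sequencing reads over stability bins, variants kept only with over 10 reads, mCherry proximal and sfGFP distal, peptide attached via GGGS linker.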

Row | Sequence | protein stability index
1 | VRIARSYERGGK | 0.701 ± 0.059
2 | VRLPLHHPIPNS | 0.7179 ± 0.0063
3 | VRPCLYPCSRTV | 0.708 ± 0.03
4 | VRRGGGHRWVVW | 0.705 ± 0.016
5 | VRRQADRAGRIS | 0.696 ± 0.073
6 | VRRVRGSKFFWR | 0.609 ± 0.12
7 | VRSCGTAGKGVT | 0.615 ± 0.029
8 | VRTHRVRARAVE | 0.685 ± 0.019
9 | VRTLGPLRPEGL | 0.74 ± 0.068
10 | VRVEVVVFEGAG | 0.598 ± 0.034
11 | VRVGNYTRARCK | 0.714 ± 0.035
12 | VRVSPDVYGSFM | 0.5897 ± 0.0057
13 | VRWISVGNGGVR | 0.725 ± 0.013
14 | VRYRSGLVFEGV | 0.747 ± 0.039
15 | VSCGVSEGDVVC | 0.675 ± 0.031
16 | VSFCRVLQSSQS | 0.692 ± 0.021
17 | VSFLVPRYLFSG | 0.654 ± 0.16
18 | VSFNPAGYKSRN | 0.671 ± 0.042
19 | VSFRAMDRLTSR | 0.6171 ± 0.0023
20 | VSGDPWMWDVFI | 0.746 ± 0.036
21 | VSGFPHASSSPT | 0.6225 ± 0.0052
22 | VSGGGAPRSVWR | 0.706 ± 0.0083
23 | VSGGGWDSCLSV | 0.724 ± 0.0082

Row | Sequence | protein stability index
24 | VSGGRLVGWGGW | 0.731 ± 0.12
25 | VSHCLLRAFSDC | 0.556 ± 0.011
26 | VSHGPAIHALSI | 0.669 ± 0.028
27 | VSIPRTLFITRF | 0.67018 ± 0.00016
28 | VSIVTLSLSNFA | 0.611 ± 0.0072
29 | VSLALYSSVSIC | 0.5382 ± 0.0049
30 | VSLCGSGLGLWV | 0.682 ± 0.033
31 | VSLCYGGGFWGR | 0.698 ± 0.018
32 | VSLFETIPVLSR | 0.605 ± 0.014
33 | VSLLIPVGVYPR | 0.667 ± 0.015
34 | VSLPGTWSSLSA | 0.6554 ± 0.0064
35 | VSNVSGKEYINV | 0.681 ± 0.038
36 | VSPAPSAILRLD | 0.6765 ± 0.0025
37 | VSPDVYGVCLRL | 0.703 ± 0.081
38 | VSPLDSPASLYS | 0.6573 ± 0.0062
39 | VSPPLHFLPLHF | 0.6661 ± 0.004
40 | VSRGGVAYGRVG | 0.742 ± 0.049
41 | VSRQHLPAVLHL | 0.661 ± 0.024
42 | VSSSQPGEYNIG | 0.7088 ± 0.0029
43 | VSSSSPSNFIPL | 0.666 ± 0.093
44 | VSTENDGCGTPR | 0.712 ± 0.022
45 | VSVGWWVGFWGV | 0.6968 ± 0.0051
46 | VSVRLWSGQSAG | 0.672 ± 0.11

Row | Sequence | protein stability index
47 | VSWFVGFCLWFP | 0.5506 ± 0.0025
48 | VTDSRAIMARRV | 0.645 ± 0.083
49 | VTEWGVKWWEDR | 0.714 ± 0.11
50 | VTKAALADLRHM | 0.609 ± 0.016
51 | VTLFGVFQGFVG | 0.709 ± 0.02
52 | VTLGQNGVSLRS | 0.596 ± 0.071
53 | VVAIGRVWGERA | 0.68 ± 0.059
54 | VVATRYGGCFRR | 0.669 ± 0.04
55 | VVCKVLVTGIFD | 0.604 ± 0.0062
56 | VVDGSILTIRCL | 0.6226 ± 0.0048
57 | VVDPDVIGREIR | 0.706 ± 0.014
58 | VVECGERWWCLT | 0.705 ± 0.032
59 | VVEGVFGQRFAG | 0.701 ± 0.033
60 | VVFKPHEVRTSD | 0.717 ± 0.054
61 | VVGAGTEWMVEV | 0.642 ± 0.025
62 | VVGAWGRGGCGG | 0.633 ± 0.01
63 | VVGGRWVVWSFK | 0.688 ± 0.018
64 | VVGQGYDSGIRY | 0.724 ± 0.024
65 | VVGRGGLICGRW | 0.625 ± 0.072
66 | VVGSVQQSSDSC | 0.692 ± 0.07
67 | VVIPLDKGVIVQ | 0.56 ± 0.014
68 | VVKEGGGCREGR | 0.64 ± 0.028
69 | VVKGGGLGRRAG | 0.66 ± 0.089

Row | Sequence | protein stability index
70 | VVLFGAGGSWGG | 0.726 ± 0.063
71 | VVMTAVEGMWDG | 0.5914 ± 0.0059
72 | VVPLTPPLSAPR | 0.68 ± 0.031
73 | VVPSMFPGAEVL | 0.691 ± 0.026
74 | VVSFDPLFPSPR | 0.706 ± 0.037
75 | VVSSSMGCCFRG | 0.659 ± 0.076
76 | VVVGVGGCVYMG | 0.702 ± 0.06
77 | VVVLCLFFSFFL | 0.5872 ± 0.0011
78 | VVVSGGGEGFWL | 0.745 ± 0.027
79 | VVWVCVRLPVRR | 0.53046 ± 0.00025
80 | VVYGVSHEETST | 0.622 ± 0.018
81 | VWAREGLGLRPP | 0.673 ± 0.11
82 | VWDQTKKKKIKK | 0.704 ± 0.014
83 | VWFSFGCGFFGR | 0.659 ± 0.061
84 | VWGGVICFGLWM | 0.579 ± 0.02
85 | VWGVFASPVVYR | 0.712 ± 0.049
86 | VWGWGAWGGCGG | 0.719 ± 0.067
87 | VWLFAESFCGCV | 0.597 ± 0.036
88 | VWLGGGVRLGRL | 0.738 ± 0.059
89 | VWLGTGGSYGFC | 0.825 ± 0.16
90 | VWRSAMIRVPPC | 0.608 ± 0.054
91 | VWVAGGVLWVLG | 0.5433 ± 0.0042
92 | VWVSHPWYMAFL | 0.618 ± 0.066

Row | Sequence | protein stability index
93 | VYGIAPPTRCFS | 0.649 ± 0.024
94 | VYKRNILHLASE | 0.681 ± 0.13
95 | VYLSSSLFPPSS | 0.804 ± 0.042
96 | VYLTGRCRRCLR | 0.702 ± 0.05
97 | VYMDKKNKCIMK | 0.795 ± 0.15
98 | VYRRWIKGKGRV | 0.675 ± 0.026
99 | VYSPVEHLLATF | 0.59 ± 0.1
100 | VYSRESMTGPVK | 0.7 ± 0.059
101 | WAARLDISQSPI | 0.754 ± 0.011
102 | WAERESLNGLSA | 0.718 ± 0.027
103 | WAFGSTVSSGIV | 0.689 ± 0.017
104 | WAGGFGGLGRDT | 0.744 ± 0.0089
105 | WAGGGRVDDGGG | 0.643 ± 0.059
106 | WAGLAQPKLVLH | 0.659 ± 0.024
107 | WAPHLPQPSRCS | 0.743 ± 0.062
108 | WARDLGAVAVQT | 0.518 ± 0.075
109 | WAVGLNPSGLGT | 0.651 ± 0.063
110 | WCMMSWMSQFRP | 0.653 ± 0.015
111 | WCPGVSGVAGVF | 0.703 ± 0.056
112 | WCPVHGSGGAPL | 0.674 ± 0.026
113 | WCVCTFGGCDFP | 0.641 ± 0.012
114 | WCVEGRATGRGW | 0.674 ± 0.018
115 | WCVRWGVVGPGL | 0.634 ± 0.03

Row | Sequence | protein stability index
116 | WDGAGGGFGLVV | 0.726 ± 0.061
117 | WDGGPTRSGGTG | 0.711 ± 0.013
118 | WDNGQVRLLRYV | 0.593 ± 0.015
119 | WEACLGRPEAGM | 0.724 ± 0.064
120 | WEEKLEGTPTGG | 0.72 ± 0.072
121 | WELVYLASLVQQ | 0.666 ± 0.055
122 | WEVGVGRQDVEW | 0.7448 ± 0.0065
123 | WFDGGGWLLFVV | 0.557 ± 0.011
124 | WFDWLAIAFYLT | 0.526 ± 0.014
125 | WFFVADVFKSWL | 0.704 ± 0.039
126 | WFRPPSVPEEEY | 0.728 ± 0.048
127 | WFSCYSGQSSNF | 0.757 ± 0.11
128 | WFSGFLGEFNRF | 0.706 ± 0.063
129 | WFVVRGGLSPGG | 0.695 ± 0.038
130 | WGAGRGGAFFSG | 0.6576 ± 0.0062
131 | WGCCRPERNCAV | 0.702 ± 0.02
132 | WGFLCVALGRWV | 0.644 ± 0.038
133 | WGGAGGGSGYGR | 0.68 ± 0.064
134 | WGGCALEQGGAV | 0.736 ± 0.025
135 | WGGFGLGVCAKC | 0.616 ± 0.072
136 | WGGGGGGGPAGV | 0.6659 ± 0.0021
137 | WGGGGLRVSCGT | 0.687 ± 0.093
138 | WGGGGVLEVLLG | 0.531 ± 0.008

Row | Sequence | protein stability index
139 | WGGGGWRGGGAR | 0.747 ± 0.033
140 | WGGGLGTAVVGV | 0.643 ± 0.021
141 | WGGQRGWVEVWR | 0.683 ± 0.04
142 | WGKGGWHRRWGC | 0.673 ± 0.0098
143 | WGRRGSRGSWGA | 0.733 ± 0.028
144 | WGVVGEWAGVGR | 0.747 ± 0.052
145 | WGWGGHGIVRRE | 0.812 ± 0.14
146 | WGYAFVGVVRGA | 0.661 ± 0.046
147 | WGYEGGWGGHGT | 0.659 ± 0.025
148 | WHRAGRSRMSWS | 0.777 ± 0.1
149 | WIFRDHVLRRFP | 0.661 ± 0.024
150 | WIISERDRTEQT | 0.733 ± 0.06
151 | WIRTCMLIQGQT | 0.736 ± 0.021
152 | WIRVYPDSSSPL | 0.8557 ± 0.002
153 | WKEMRKKVGRGK | 0.696 ± 0.056
154 | WKNTNSLRAPAL | 0.675 ± 0.016
155 | WLAGKAGASHRG | 0.656 ± 0.0079
156 | WLAIFFFSLSPF | 0.525 ± 0.055
157 | WLFAFLCSCFCV | 0.71 ± 0.093
158 | WLGFHFLFLWKC | 0.587 ± 0.1
159 | WLIKKIKTKQTR | 0.758 ± 0.074
160 | WLLGLRPTVSKE | 0.756 ± 0.068

From the supplement of paper PMC10724198
